{
  "source": "patent US7678885",
  "about": "(GENETICS INSTITUTE, dated 2010)",
  "binders": {"B1": {"name": "E. coli BMP-2 monomer (mature portion of BMP-2 from plasmid pALBP2-781) (ligand)", "chain": "MQAKHKQRKRLKSSCKRHPLYVDFSDVGWNDWIVAPPGYHAFYCHGECPFPLADHLNSTNHAIVQTLVNSVNSKIPKACCVPTELSAISMLYLDENEKVVLKNYQDMVVEGCGCR"}, "B2": {"name": "BMP-6 subunit beginning with amino acid #375 (CHO-produced) (ligand)", "chain": "SASSRRRQQSRNRSTQSQDVARVSSASDYNSSELKTACRKHELYVSFQDLGWQDWIIAPKGYAANYCDGECSFPLNAHMNATNHAIVQTLVHLMNPEYVPKPCCAPTKLNAISVLYFDDNSNVILKKYRNMVVRACGCH", "notes": "Single subunit"}, "B3": {"name": "BMP-2 subunit beginning with amino acid #283 (CHO-produced) (ligand)", "chain": "QAKHKQRKRLKSSCKRHPLYVDFSDVGWNDWIVAPPGYHAFYCHGECPFPLADHLNSTNHAIVQTLVNSVNSKIPKACCVPTELSAISMLYLDENEKVVLKNYQDMVVEGCGCR", "notes": "also called mature BMP-2 subunit"}},
  "key": {"[1]": {"biological_target": "the molecule itself", "assay": "refolding of E. coli monomer, SDS-PAGE with and without reduction"}, "[2]": {"biological_target": "the molecule itself", "assay": "purification of BMP-2/6 from CHO 12C07 medium, gel analysis", "procedure": "After the completion of sample loading, the column was washed with 10 bed volumes of the equilibration buffer. Bound BMP-2/7 or BMP-2/6 heterodimers were eluted with 5 bed volumes of 100 mM potassium phosphate, 6M urea, pH 7.4. This eluate was loaded directly onto a Vydac C_4 reverse-phase HPLC column equilibrated in water –0.1% TFA. BMP-2/7 or BMP-2/6 heterodimers were eluted with a gradient of 30-50% acetonitrile in water—0.1% trifluoroacetic acid.\nFractions containing BMPs are identified by SDS-PAGE in the presence or absence of reductant. The identity of the BMPs with respect to the heterodimers vs. homodimers is determined by 2D-PAGE (+/−reductant). Fractions with heterodimers gave bands which reduce to two spots. Bands from homodimer fractions reduce to a single spot for each BMP species."}, "[3]": {"biological_target": "T1, BMP-2 subunit beginning with amino acid #249 (CHO-produced) (human, UniProt P12643 249-396)", "T1 construct": "Single subunit; also called BMP-2 subunit #249 Ser-Lev-His", "T1 sequence": "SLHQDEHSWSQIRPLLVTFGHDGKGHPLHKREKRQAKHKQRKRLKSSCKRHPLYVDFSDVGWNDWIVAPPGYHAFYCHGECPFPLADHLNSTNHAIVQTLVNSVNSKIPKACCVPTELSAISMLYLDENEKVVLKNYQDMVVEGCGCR", "assay": "protein sequencing of purified CHO BMP-2/6 heterodimer subunits", "procedure": "(§1) The BMP-2/6 heterodimer subunits are analyzed on a protein sequenator."}, "[4]": {"biological_target": "B2", "assay": "protein sequencing of purified CHO BMP-2/6 heterodimer subunits", "procedure": "as §1"}},
  "data": [
    {"binder": "B1", "values": [
      {"measurement": "binding result", "setting": "[1]", "result": "binds"}
    ]},
    {"binder": "B2", "values": [
      {"measurement": "binding result", "setting": "[2]", "result": "binds"},
      {"measurement": "binding result", "setting": "[3]", "result": "binds"}
    ]},
    {"binder": "B3", "values": [
      {"measurement": "binding result", "setting": "[4]", "result": "binds"}
    ]}
  ]
}
